The target of one series is T1, ΔN-Dhr1-ΔSKTTD (Saccharomyces cerevisiae, UniProt Q04217 376-665+671-1267, internal_change).
T1 sequence: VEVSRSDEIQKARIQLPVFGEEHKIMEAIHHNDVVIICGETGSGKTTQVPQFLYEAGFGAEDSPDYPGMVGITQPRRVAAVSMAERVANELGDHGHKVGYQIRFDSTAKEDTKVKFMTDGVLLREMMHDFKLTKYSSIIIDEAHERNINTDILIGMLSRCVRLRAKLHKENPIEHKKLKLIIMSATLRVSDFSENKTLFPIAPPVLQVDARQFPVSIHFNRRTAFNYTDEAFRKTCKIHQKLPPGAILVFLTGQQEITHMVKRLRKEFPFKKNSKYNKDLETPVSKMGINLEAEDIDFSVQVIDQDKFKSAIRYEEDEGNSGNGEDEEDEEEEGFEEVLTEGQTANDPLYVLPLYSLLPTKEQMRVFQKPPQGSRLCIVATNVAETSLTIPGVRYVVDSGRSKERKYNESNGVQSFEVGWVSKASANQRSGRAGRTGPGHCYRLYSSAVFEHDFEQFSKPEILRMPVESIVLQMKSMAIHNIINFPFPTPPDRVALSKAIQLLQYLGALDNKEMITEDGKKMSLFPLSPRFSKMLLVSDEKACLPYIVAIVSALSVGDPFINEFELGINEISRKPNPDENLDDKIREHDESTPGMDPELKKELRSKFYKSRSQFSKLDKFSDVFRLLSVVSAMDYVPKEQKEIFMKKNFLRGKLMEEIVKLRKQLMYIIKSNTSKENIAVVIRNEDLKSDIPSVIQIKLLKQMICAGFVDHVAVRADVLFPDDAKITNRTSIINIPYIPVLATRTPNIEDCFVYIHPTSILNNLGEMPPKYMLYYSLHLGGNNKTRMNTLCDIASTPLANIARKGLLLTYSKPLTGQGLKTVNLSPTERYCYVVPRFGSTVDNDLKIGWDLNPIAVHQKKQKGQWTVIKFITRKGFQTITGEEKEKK
The series can be described thus: fluorescence polarization; no nucleotide; 10 mM Mg2+; 40 mM Tris-HCl pH 8.0, 40 mM KCl, 150 mM NaCl, 2 mM NaOAc, 2 mM DTT, 10 mM MgCl2, 4% glycerol, 0.05% Tween 20, 25 °C, 10 min; 1.25 nM RNA, 0.625 nM-20 µM protein. To be noted: protein: recombinant; tags: C-terminal His6 (pET21a); label: 5' 6-FAM; single strand. For orientation: Fluorescence polarisation rises when a labelled molecule tumbles more slowly, as on binding a larger partner.

Another series concerns the target T2, ΔN-Dhr1-WT (Saccharomyces cerevisiae, UniProt Q04217 376-1267).
T2 sequence: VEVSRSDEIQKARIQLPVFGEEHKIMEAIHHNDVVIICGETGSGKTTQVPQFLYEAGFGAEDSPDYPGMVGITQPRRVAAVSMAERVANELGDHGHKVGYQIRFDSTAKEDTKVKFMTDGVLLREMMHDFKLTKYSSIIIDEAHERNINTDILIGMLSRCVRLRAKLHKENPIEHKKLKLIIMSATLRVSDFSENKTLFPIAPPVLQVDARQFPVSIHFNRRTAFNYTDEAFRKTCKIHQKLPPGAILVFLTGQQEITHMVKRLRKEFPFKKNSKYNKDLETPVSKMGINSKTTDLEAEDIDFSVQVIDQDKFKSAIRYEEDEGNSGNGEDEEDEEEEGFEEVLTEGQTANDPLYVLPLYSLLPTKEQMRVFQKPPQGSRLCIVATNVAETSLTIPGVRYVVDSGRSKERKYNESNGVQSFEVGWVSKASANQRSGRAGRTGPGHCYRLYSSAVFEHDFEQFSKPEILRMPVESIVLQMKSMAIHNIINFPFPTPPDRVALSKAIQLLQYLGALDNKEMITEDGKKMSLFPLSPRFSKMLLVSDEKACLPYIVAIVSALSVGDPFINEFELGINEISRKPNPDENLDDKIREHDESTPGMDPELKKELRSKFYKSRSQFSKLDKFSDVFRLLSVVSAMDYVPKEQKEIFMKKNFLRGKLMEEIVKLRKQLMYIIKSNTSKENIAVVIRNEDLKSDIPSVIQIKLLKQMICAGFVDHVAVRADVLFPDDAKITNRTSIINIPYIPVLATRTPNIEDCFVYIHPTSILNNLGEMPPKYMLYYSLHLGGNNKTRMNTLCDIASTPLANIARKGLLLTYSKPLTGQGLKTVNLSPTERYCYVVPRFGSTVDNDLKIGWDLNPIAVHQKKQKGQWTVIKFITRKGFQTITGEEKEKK
The series is described as above. To be noted: protein: recombinant; tags: C-terminal His6 (pET21a); label: 5' 6-FAM; single strand.

Drawing on publication PMC11994318, “In vitro characterization of the yeast DEAH/RHA RNA helicase Dhr1” (The Journal of Biological Chemistry, 2025), this text covers Kd for one molecule.

Broadly, the Kd is the constant that tells how readily two partners part at equilibrium.

For UUUUUUUUUUUUUUUUUUUU (ssRNA) [U20], the Kd with ΔN-Dhr1-ΔSKTTD is 60 ± 10 nM; with ΔN-Dhr1-WT, 300 ± 20 nM.
